# Laboratory results reported in paper PMC3943411, “Modular assembly of designer PUF proteins for specific post-transcriptional regulation of endogenous RNA”.
# T1: PUF (S6) (human, UniProt Q14671 828-1176, S863N;C935N;N971C;H972Y;C1007N;N1043C;N1122C)
# T1 sequence: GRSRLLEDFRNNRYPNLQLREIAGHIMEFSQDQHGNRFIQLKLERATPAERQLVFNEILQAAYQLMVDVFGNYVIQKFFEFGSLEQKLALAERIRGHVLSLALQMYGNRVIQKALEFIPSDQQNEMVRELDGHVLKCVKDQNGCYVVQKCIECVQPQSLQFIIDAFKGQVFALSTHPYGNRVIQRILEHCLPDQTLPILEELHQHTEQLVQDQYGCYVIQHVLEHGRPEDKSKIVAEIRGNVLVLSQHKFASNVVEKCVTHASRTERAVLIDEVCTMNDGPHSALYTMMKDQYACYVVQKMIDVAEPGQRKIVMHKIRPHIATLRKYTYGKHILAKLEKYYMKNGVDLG
# T2: PUF (S8) (human, UniProt Q14671 828-1176, S863N;N899S;Q903E;C935N;N971C;H972Y;C1007N;N1043C;S1079N;E1083Q;N1122C)
# T2 sequence: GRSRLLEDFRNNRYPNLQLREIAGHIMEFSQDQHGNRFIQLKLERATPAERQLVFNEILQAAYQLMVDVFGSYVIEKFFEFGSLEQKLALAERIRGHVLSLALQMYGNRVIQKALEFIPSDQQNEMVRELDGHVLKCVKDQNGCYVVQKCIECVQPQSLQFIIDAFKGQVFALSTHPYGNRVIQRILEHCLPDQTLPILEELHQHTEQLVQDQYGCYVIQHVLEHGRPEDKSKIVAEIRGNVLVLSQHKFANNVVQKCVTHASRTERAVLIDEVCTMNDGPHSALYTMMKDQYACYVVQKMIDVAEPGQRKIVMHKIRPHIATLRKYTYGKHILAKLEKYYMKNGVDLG
# T3: PUF (S4) (human, UniProt Q14671 828-1176, C935N;N971C;H972Y;C1007N;N1043C)
# T3 sequence: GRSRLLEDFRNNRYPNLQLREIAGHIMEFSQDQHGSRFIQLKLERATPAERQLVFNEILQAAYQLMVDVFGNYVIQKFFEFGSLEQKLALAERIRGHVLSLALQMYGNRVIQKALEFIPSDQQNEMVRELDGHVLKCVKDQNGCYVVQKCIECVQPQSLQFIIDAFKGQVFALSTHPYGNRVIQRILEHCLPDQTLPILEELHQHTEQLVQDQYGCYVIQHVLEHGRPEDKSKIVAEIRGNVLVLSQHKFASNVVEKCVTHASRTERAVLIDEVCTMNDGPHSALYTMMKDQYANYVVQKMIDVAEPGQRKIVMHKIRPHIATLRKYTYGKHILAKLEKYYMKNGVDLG
# Experiments:
# Settings in all cases: protein: recombinant; tags: His-tag (pET28a); label: 5' 6-carboxyfluorescein
# PUF (S2) [1] = biological target: T4, PUF (S2) (human, UniProt Q14671 828-1176, S863N;N1122C); assay: fluorescence polarization/anisotropy; cognate; 1 nM RNA; 20 mM Tris-HCl pH 7.5, 0.5 mM EDTA, 50 mM KCl, 0.1 mg/ml BSA; temperature not stated; protein corrected for active fraction (about 30%); KD mean ± SD, n = 3
# PUF (S6) [2] = biological target: T1, PUF (S6); assay: as above
# PUF (S8) = biological target: T2, PUF (S8); assay: as above
# PUF (S4) [3] = biological target: T3, PUF (S4); assay: as above
# PUF (S2) [4] = biological target: T4, PUF (S2); assay: fluorescence polarization/anisotropy; noncognate; 1 nM RNA; 20 mM Tris-HCl pH 7.5, 0.5 mM EDTA, 50 mM KCl, 0.1 mg/ml BSA; temperature not stated; protein corrected for active fraction (about 30%); KD mean ± SD, n = 3
# PUF (S6) [5] = biological target: T1, PUF (S6); assay: as above
# PUF (S4) [6] = biological target: T3, PUF (S4); assay: as above
binder,measurement,setting,value
CCAGAAUAGUAUAUUAUUCG (ssRNA) [S2 RNA (AGUAUAUU)],Kd,PUF (S2) [1],0.76 ± 0.11 nM
CCAGAAUAGAUAUUUUUCG (ssRNA) [S6 RNA (AGAUAUUU)],Kd,PUF (S6) [2],6.05 ± 0.25 nM
CCAGAAUAUAUAUGUUUCG (ssRNA) [S8 RNA (AUAUAUGU)],Kd,PUF (S8),2.79 ± 0.69 nM
CCAGAAUUGAUAUUAUUCG (ssRNA) [S4 RNA (UGAUAUUA)],Kd,PUF (S4) [3],0.59 ± 0.1 nM
CCAGAAUUGUAUAUAUUCG (ssRNA) [WT RNA (UGUAUAUA)],Kd,PUF (S2) [4],6.29 ± 2.8 nM
same,Kd,PUF (S6) [5],89.6 ± 16.5 nM
same,Kd,PUF (S4) [6],5.77 ± 1.33 nM
